Read-outs that look alike come from different tables or passages of the source.
B1: SRC1_(630-987) (domain or fragment, human, UniProt Q15788 630-987, looked up)
chain: SHKLVQLLTTTAEQQLRHADIDTSCKDVLSCTGTSNSASANSSGGSCPSSHSSLTERHKILHRLLQEGSPSDITTLSVEPDKKDSASTSVSVTGQVQGNSSIKLELDASKKKESKDHQLLRYLLDKDEKDLRSTPNLSLDDVKVKVEKKEQMDPCNTNPTPMTKPTPEEIKLEAQSQFTADLDQFDQLLPTLEKAAQLPGLCETDRMDGAVTSVTIKSEILPASLQSATARPTSRLNRLPELELEAIDNQFGQPGTGDQIPWTNNTVTAINQSKSEDQCISSQLDELLCPPTTVEGRNDEKALLEQLVSFLSGKDETELAELDRALGIDKLVQGGGLDVLSERFPPQQATPPLIMEER
modifications: biotin (biotin-labelled in the BLI assays; site not stated)
B2: FXR120-RXRα98 heterodimer (FXR_(120-486) with RXRα_(98-462)) (complex, human)
chain 1: KKPRMGASAGRIKGDELCVVCGDRASGYHYNALTCEGCKGFFRRSITKNAVYKCKNGGNCVMDMYMRRKCQECRLRKCKEMGMLAECMYTGLLTEIQCKSKRLRKNVKQHADQTVNEDSEGRDLRQVTSTTKSCREKTELTPDQQTLLHFIMDSYNKQRMPQEITNKILKEEFSAEENFLILTEMATNHVQVLVEFTKKLPGFQTLDHEDQIALLKGSAVEAMFLRSAEIFNKKLPSGHSDLLEERIRNSGISDEYITPMFSFYKSIGELKMTQEEYALLTAIVILSPDRQYIKDREAVEKLQEPLLDVLQKLCKIHQPENPQHFACLLGRLTELRTFNHHHAEMLMSWRVNDHKFTPLLCEIWDVQ
chain 2: MNPVSSSEDIKPPLGLNGVLKVPAHPSGNMASFTKHICAICGDRSSGKHYGVYSCEGCKGFFKRTVRKDLTYTCRDNKDCLIDKRQRNRCQYCRYQKCLAMGMKREAVQEERQRGKDRNENEVESTSSANEDMPVERILEAELAVEPKTETYVEANMGLNPSSPNDPVTNICQAADKQLFTLVEWAKRIPHFSELPLDDQVILLRAGWNELLIASFSHRSIAVKDGILLATGLHVHRNSAHSAGVGAIFDRVLTELVSKMRDMQMDKTELGCLRAIVLFNPDSKGLSNPAEVEALREKVYASLEAYCKHKYPEQPGRFAKLLLRLPALRSIGLKCLEHLFFFKLIGDTPIDTFLMEMLEAPHQMT

Tests used:
[1] = target: B2; experiment: BLI
[2] = target: B2; experiment: BLI; remark: listed apart in the source
[3] = target: B2; experiment: BLI; remark: listed apart in the source
SRC1_(630-987) = target: B1; experiment: SEC-MALS
[4] = target: SRC1_(630-987) M3 mutant (NR-box3 mutated) (human) (UniProt Q15788); experiment: BLI

Row | Kd [1] [nM] | Kd [2] [nM] | Kd [3] [nM] | stoichiometry N (SRC1_(630-987)) | fold reduction in affinity against wild type SRC1 (630-987) [4] [fold] | Binder
1 | 23.7 | 43.1 | 49 | – | – | B1
2 | – | – | – | 1 | 2 | B2

From article doi:10.1101/2024.05.13.593894 (bioRxiv, 2024)
